Target: T1, LRP-1 (Homo sapiens, UniProt Q07954)
T1 construct: Proteins were extracted from colon cancer tissues of each case according to radiation irradiation; from tissue; host or cells: patient colon cancer tissue (0 Gy / 2 Gy) transplanted and subcultured in nude mice
Assay: Immunoprecipitation assay of TPSFSKI peptide phage and LRP-1, confirmed by western blotting
Type: binding
Settings: proteins extracted from colon cancer tissues, 0 Gy/2 Gy irradiation, LRP-1 and M13 antibodies, IgG beads
Source text: Lysate: 0 Gy/2 Gy protein extracted from radiation colon cancer tissue, IP (B5 phage): 0 Gy/2 Gy Immunoprecipitation with a specific peptide phage in protein extracted from radiation colon cancer tissue, IP (wt phage): 0 Gy/2 Gy Immunoprecipitation in protein extracted from radiation colon cancer tissue with phage without peptide, IP (w/o Ab): 0 Gy/2 Gy Immunoprecipitation without antibody in protein extracted from radiation colon cancer tissue, phage lysate: protein extracted from peptide phage targeting by irradiation in radiation resistant colon cancer tissue, Antibody: LRP-1 antibody
Based on the indirect verification that LRP-1 is a binding partner protein of the TPSFSKI peptide sequence in Examples 3 to 5, an immunoprecipitation assay was performed to directly determine whether […] was bound to the TPSFSKI sequence. Proteins were extracted from colon cancer tissues of each case according to radiation irradiation, and immunoprecipitation was performed using LRP-1 and M13 antibodies and IgG beads.

T1 sequence (Q07954 20-4544): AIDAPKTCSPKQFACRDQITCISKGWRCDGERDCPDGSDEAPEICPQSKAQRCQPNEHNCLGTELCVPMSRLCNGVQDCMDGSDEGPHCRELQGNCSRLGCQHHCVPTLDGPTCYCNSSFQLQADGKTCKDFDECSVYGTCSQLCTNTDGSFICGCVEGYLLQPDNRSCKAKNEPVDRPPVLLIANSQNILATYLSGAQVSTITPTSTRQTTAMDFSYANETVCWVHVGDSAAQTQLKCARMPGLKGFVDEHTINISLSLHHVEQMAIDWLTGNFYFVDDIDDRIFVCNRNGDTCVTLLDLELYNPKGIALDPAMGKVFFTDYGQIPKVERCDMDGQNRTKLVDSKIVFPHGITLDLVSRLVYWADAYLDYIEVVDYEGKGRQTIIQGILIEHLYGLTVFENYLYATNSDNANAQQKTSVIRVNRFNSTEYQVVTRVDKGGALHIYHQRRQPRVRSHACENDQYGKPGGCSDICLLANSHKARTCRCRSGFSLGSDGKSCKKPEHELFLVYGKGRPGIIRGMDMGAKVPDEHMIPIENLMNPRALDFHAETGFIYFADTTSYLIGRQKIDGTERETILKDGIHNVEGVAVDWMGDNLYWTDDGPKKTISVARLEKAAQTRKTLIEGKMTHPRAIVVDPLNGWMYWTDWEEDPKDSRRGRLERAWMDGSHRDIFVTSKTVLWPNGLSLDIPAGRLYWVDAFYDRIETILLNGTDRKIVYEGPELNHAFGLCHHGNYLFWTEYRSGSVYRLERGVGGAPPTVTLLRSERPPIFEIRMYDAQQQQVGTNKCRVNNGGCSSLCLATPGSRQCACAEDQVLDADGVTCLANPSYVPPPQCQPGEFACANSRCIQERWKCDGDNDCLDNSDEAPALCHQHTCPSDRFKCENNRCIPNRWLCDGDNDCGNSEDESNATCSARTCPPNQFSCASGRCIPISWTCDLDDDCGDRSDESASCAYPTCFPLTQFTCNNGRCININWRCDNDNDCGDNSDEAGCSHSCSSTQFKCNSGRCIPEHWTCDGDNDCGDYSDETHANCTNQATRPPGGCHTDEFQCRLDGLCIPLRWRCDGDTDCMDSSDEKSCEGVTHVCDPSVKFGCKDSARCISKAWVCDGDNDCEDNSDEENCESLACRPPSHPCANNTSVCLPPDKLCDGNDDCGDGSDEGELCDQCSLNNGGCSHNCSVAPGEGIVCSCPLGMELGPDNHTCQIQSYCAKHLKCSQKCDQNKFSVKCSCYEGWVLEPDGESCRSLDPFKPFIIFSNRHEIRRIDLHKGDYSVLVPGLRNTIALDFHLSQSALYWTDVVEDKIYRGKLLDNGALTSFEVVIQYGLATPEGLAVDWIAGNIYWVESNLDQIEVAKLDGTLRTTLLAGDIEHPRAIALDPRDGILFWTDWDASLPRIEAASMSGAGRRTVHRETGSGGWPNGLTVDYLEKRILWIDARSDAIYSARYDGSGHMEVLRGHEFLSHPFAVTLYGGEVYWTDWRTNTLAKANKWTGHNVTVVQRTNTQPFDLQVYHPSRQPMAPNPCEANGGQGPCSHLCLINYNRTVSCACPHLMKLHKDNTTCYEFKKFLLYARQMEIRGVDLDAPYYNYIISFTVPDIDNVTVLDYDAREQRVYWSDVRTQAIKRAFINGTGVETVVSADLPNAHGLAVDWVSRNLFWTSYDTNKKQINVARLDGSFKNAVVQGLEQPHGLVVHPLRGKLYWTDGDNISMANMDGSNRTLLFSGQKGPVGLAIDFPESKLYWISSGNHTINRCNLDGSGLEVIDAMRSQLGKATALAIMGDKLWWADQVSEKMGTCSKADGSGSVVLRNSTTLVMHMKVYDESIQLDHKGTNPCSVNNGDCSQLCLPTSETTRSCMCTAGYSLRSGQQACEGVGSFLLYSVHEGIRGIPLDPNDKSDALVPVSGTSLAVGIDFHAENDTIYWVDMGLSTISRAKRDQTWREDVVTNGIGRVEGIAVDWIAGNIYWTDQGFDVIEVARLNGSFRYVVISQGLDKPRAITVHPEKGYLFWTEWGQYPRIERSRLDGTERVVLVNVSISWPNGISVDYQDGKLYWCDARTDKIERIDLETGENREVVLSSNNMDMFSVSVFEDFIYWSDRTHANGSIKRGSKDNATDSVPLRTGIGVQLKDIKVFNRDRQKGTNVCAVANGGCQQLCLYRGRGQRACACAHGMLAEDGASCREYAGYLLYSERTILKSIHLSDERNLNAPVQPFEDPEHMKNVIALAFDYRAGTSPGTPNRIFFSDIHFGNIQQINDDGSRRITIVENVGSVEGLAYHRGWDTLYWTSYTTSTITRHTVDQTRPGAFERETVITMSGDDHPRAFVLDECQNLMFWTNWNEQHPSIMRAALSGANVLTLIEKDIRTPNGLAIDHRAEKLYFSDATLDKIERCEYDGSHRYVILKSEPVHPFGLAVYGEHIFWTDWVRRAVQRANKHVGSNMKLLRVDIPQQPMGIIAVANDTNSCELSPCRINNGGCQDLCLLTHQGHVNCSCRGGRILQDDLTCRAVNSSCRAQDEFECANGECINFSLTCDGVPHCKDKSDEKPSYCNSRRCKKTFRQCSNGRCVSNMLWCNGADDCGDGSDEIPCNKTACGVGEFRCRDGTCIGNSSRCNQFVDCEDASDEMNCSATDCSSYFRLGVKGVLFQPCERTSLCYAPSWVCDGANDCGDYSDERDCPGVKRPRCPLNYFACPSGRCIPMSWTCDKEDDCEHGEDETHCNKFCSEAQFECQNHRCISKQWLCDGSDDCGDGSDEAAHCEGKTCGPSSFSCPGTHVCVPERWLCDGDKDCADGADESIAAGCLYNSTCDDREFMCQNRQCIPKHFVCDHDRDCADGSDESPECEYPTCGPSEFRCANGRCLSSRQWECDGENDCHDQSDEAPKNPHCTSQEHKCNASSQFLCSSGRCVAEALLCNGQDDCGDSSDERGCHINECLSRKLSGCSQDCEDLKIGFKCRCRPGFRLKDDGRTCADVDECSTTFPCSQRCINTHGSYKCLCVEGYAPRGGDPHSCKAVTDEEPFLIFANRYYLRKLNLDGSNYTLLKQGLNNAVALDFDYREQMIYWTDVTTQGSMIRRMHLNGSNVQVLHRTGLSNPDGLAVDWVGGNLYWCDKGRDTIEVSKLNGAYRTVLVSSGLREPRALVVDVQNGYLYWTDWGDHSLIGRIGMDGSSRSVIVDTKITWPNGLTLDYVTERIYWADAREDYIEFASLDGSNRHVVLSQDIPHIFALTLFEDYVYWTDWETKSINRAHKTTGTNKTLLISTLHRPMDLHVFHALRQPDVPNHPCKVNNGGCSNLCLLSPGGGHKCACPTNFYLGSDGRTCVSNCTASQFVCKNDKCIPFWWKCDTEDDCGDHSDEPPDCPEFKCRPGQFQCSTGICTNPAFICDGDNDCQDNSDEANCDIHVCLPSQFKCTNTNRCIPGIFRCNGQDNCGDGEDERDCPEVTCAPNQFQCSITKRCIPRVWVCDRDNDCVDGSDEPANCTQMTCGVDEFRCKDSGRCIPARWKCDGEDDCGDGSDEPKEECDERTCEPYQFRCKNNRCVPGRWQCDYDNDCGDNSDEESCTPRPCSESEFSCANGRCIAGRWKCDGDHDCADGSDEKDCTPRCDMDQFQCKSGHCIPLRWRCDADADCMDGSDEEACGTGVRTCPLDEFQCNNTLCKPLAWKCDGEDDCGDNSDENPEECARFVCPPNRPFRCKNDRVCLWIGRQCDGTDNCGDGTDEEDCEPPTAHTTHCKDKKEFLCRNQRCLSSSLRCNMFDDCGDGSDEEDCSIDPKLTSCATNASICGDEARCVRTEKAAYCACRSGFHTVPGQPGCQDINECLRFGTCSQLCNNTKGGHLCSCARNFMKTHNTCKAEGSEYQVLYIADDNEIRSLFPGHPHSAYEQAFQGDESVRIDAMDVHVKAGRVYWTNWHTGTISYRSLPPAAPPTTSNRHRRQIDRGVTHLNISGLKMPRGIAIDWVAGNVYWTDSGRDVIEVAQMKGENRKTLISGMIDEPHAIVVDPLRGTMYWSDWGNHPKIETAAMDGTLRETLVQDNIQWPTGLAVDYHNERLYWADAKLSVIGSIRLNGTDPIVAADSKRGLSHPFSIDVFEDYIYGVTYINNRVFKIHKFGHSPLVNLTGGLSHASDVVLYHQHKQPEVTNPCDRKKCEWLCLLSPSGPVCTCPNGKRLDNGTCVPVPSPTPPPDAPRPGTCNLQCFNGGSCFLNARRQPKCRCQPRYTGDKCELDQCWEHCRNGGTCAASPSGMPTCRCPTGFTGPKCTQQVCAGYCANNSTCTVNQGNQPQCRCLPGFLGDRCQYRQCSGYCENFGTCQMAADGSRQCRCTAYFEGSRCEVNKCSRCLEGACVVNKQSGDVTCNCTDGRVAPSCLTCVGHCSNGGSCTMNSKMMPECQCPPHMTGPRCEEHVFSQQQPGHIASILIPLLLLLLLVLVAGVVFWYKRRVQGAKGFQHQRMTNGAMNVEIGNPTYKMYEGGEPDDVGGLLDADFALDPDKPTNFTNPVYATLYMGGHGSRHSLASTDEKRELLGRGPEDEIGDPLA

## TPSFSKI [TPSFSKI peptide, used as peptide phage]
  binding of LRP-1 to the TPSFSKI sequence (immunoprecipitation): LRP-1 is a binding partner protein of TPSFSKI peptide

Reference: patent US20190203302A1, “BIOMARKER C[…]-1 AS ACTIVE INGREDIENT, FOR DIAGNOSIS OF RADIATION-RESISTANT CANCER OR PREDICTION OF RADIATION THERAPY PROGNOSIS” (UNIVERSITY OF ULSAN FOUNDATION FOR INDUSTRY COOPERATION, priority 2016, published 2019)
